# Tests used:
# [1] = target: Drosophila melanogaster α-amylase (Drosophila melanogaster) (UniProt P08144)
# [2] = target: T1, DMA (Drosophila melanogaster α-amylase) (Drosophila melanogaster, UniProt P08144); assay: residual activity on starch after inhibitor preincubation; format: biochemical; conditions: native DMA, Pichia-produced; inhibitor 1-50 µM, 20 mM HEPES pH 7.5, 20 mM NaCl, 1 mM CaCl2, 25 °C
# T1 construct: gene Amy-p; mature enzyme of 476 residues in crystal; recombinant, amy-p in pET22b, E. coli BL21 (kinetics, crystals); glycogen-purified; no tag mentioned
# T1 sequence (P08144 with tags, fused parts or gaps): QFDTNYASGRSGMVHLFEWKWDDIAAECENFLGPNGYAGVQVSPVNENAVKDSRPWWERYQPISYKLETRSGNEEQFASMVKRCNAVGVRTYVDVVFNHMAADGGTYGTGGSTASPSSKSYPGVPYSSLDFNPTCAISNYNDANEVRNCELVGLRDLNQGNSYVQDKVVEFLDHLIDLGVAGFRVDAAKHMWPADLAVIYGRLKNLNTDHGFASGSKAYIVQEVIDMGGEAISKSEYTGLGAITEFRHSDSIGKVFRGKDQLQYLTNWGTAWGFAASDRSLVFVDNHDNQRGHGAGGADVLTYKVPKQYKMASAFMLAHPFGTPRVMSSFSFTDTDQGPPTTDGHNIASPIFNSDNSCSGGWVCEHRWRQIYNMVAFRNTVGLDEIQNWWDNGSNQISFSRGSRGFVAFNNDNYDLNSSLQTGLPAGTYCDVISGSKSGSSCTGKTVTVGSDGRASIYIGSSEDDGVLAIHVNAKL
# Chain of Drosophila melanogaster α-amylase (Drosophila melanogaster) (P08144 other isoform, or with tags, fused parts or gaps): as the sequence (P08144 with tags, fused parts or gaps) above
compound,measurement,setting,value
"WI-1 (tetrameric form), wheat α-amylase inhibitor from Triticum aestivum seeds (complex)","residual α-amylase activity of DMA after 20 min incubation with the inhibitor (1 to 50 µM) at 25 °C, pH 7.5; value at 10 μM WI-1",[1],6%
C[C@H]1O[C@H](O[C@H]2[C@H](O)[C@@H](O)[C@@H](O[C@H]3[C@H](O)[C@@H](O)C(O)O[C@@H]3CO)O[C@@H]2CO)[C@H](O)[C@@H](O)[C@@H]1N[C@H]1C=C(CO)[C@@H](O)[C@H](O)[C@H]1O (stereo partly shown) [acarbose],residual activity (%),[2],Residual activity of (a) native DMA after treatment with proteinaceous inhibitors and acarbose
"WI-3 (monomeric form), wheat α-amylase inhibitor from Triticum aestivum seeds (natural protein)","residual α-amylase activity of DMA after 20 min incubation with the inhibitor (1 to 50 µM) at 25 °C, pH 7.5; value at 10 μM WI-3",[1],0.8%
"α-AI, α-amylase inhibitor from seeds of the common bean Phaseolus vulgaris (natural protein)","residual α-amylase activity of DMA after 20 min incubation with the inhibitor (1 to 50 µM) at 25 °C, pH 7.5; value at the highest concentration (50 μM) of α-AI",[1],38%

# Reference: publication PMC10384113, “Structural and Functional Characterization of Drosophila melanogaster α-Amylase” (Molecules, 2023)
